Measured values published in article doi:10.1101/2022.04.02.486817 (bioRxiv, 2022).
Each block holds one binder with its values, some of them ahead of it.

Legend:
recombinant AP2 core = recombinant AP2 core (UniProt P18484 1-621; P63010 1-591; P84092 1-435; P62743 1-142); assay: BLI
AP2 α-appendage = AP2 α-appendage (UniProt P17427 702-938); assay: ITC
Cμ2 = biological target: T1, Cμ2 (UniProt P84092 158-435); assay: ITC
T1 sequence (looked up): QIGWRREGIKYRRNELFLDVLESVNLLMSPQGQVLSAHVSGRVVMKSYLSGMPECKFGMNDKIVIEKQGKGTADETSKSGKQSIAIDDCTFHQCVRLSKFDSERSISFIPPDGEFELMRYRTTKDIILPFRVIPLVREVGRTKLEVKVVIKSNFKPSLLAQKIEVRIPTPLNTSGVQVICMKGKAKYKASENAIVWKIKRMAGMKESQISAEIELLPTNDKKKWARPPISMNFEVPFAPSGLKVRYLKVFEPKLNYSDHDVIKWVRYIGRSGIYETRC

AP2 α-appendage, sequence (P17427 702-938): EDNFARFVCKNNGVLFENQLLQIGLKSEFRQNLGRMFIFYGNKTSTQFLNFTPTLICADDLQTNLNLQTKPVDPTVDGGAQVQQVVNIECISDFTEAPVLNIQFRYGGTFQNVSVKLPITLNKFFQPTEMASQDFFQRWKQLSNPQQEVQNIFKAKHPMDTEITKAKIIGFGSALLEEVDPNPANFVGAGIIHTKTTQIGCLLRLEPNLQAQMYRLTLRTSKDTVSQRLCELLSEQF

Kd (recombinant AP2 core): 9.8 ± 1.5 µM
B1: FCHO2 linker (residues 314-444) (domain or fragment)
chain: NIPDVDEEGYSIKPETNQNDTKENHFYSSSDSDSEDEEPKKYRIEIKPMHPNNSHHTMASLDELKVSIGNITLSPAISRHSPVQMNRNLSNEELTKSKPSAPPNEKGTSDLLAWDPLFGPSLDSSSSSSLT

Kd (AP2 α-appendage): ~50 µM
Binder: SEEQVSKNLFGPPLESAFDHEH [FCHO1 C peptide (residues 426-448 SEEQVSKNLFGPPLESAFDHEH)]

Kd (recombinant AP2 core): 8.5 ± 2.2 µM
B2: FCHO1 linker (residues 316-444) (domain or fragment)
chain: TCPEVDEEGFTVRPDVTQNSTAEPSRFSSSDSDFDDEEPRKFYVHIKPAPARAPACSPEAAAAQLRATAGSLILPPGPGGTMKRHSSRDAAGKPQRPRSAPRTSSCAERLQSEEQVSKNLFGPPLESAF

Kd (Cμ2): ~25 µM
Binder: NIPDVDEEGYSIKPETNQNDTKENHFYSSSDSDSEDEEPKKYRI (domain or fragment, human, UniProt Q0JRZ9 314-357, looked up) [FCHO2N1+N2]
